In assay [1] the target is Fc hole chain of mutant KiHss (Y349C/T366S/L368A/Y407V) (human). Nature of the assay: non-reducing SDS-PAGE of co-expressed chains; scFv-Fc chain (A) and Fc chain (B) co-transfected 1:1 in HEK 293H; secreted Fcs purified by Protein A; disulphide-linked dimers AA, AB and BB told apart by size and quantified by densitometry (ImageLab).
For assay [2], the target named is Fc hole chain with F405K (Y349C/T366S/L368A/Y407V/F405K), of mutants KiHss-Kh, KiHss-AkKh and KiHss-KkKh (human). Described as above.

The source of these data is article PMC5584228.

With “scFv-Fc knob chain with F405K (S354C/T366W/F405K), of mutants KiHss-Kk and KiHss-KkKh (Fc fusion)”, the heterodimeric Fc (AB), percent of total Fcs in assay [1] was above 80%.
“scFv-Fc knob chain of mutant KiHss (S354C/T366W) (Fc fusion)”: the heterodimeric Fc (AB), percent of total Fcs is 73% in assay [1] and above 80% in assay [2].
“scFv-Fc knob chain of mutant KiHss-AkKh (S354C/T366W/K409A) (Fc fusion)”: the heterodimeric Fc (AB), percent of total Fcs in assay [2] was determined as 94%.
